Reference: the supplement of paper PMC11316812
± gives the standard deviation of the averaged measurements.

Tests used:
MCF7 = experiment: percentage of EdU-negative (G0-arrested) nuclei per well, 72 h; higher = more G0 arrest; details: reference: sequence is the full UniProt precursor, the tested protein was the secreted form or ectodomain
hTERT-HMEC = experiment: as above; details: reference: sequence is the full UniProt precursor, the tested protein was the secreted form or ectodomain
[1] = protein concentration 0.0225 µM
[2] = protein concentration 0.01975 µM
[3] = protein concentration 0.1975 µM
[4] = protein concentration 0.0168571 µM
[5] = protein concentration 0.168571 µM
[6] = protein concentration 0.0065 µM
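Further: secreted proteins added to cultured cells, EdU pulse at the end, nuclei found by Hoechst imaging, EdU status from nuclear versus surrounding ring intensity ratio, PBS as neutral control.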

Row | Sequence | percentage of EdU-negative (MCF7; [1]) [%] | percentage of EdU-negative (MCF7; protein concentration 0.225 µM) [%] | percentage of EdU-negative (hTERT-HMEC; [1]) [%] | percentage of EdU-negative (hTERT-HMEC; protein concentration 0.225 µM) [%] | also measured
1 | MIRAAPPPLFLLLLLLLLLVSWASRGEAAPDQDEIQRLPGLAKQPSFRQYSGYLKGSGSKHLHYWFVESQKDPENSPVVLWLNGGPGCSSLDGLLTEHGPFLVQPDGVTLEYNPYSWNLIANVLYLESPAGVGFSYSDDKFYATNDTEVAQSNFEALQDFFRLFPEYKNNKLFLTGESYAGIYIPTLAVLVMQDPSMNLQGLAVGNGLSSYEQNDNSLVYFAYYHGLLGNRLWSSLQTHCCSQNKCNFYDNKDLECVTNLQEVARIVGNSGLNIYNLYAPCAGGVPSHFRYEKDTVVVQDLGNIFTRLPLKRMWHQALLRSGDKVRMDPPCTNTTAASTYLNNPYVRKALNIPEQLPQWDMCNFLVNLQYRRLYRSMNSQYLKLLSSQKYQILLYNGDVDMACNFMGDEWFVDSLNQKMEVQRRPWLVKYGDSGEQIAGFVKEFSHIAFLTIKGAGHMVPTDKPLAAFTMFSRFLNKQPY | 25.2 ± 3.7 | 25.1 ± 0.47 | 5.3 ± 0.043 | 5.82 ± 0.15 | 
2 | MTSSRLWFSLLLAAAFAGRATALWPWPQNFQTSDQRYVLYPNNFQFQYDVSSAAQPGCSVLDEAFQRYRDLLFGSGSWPRPYLTGKRHTLEKNVLVVSVVTPGCNQLPTLESVENYTLTINDDQCLLLSETVWGALRGLETFSQLVWKSAEGTFFINKTEIEDFPRFPHRGLLLDTSRHYLPLSSILDTLDVMAYNKLNVFHWHLVDDPSFPYESFTFPELMRKGSYNPVTHIYTAQDVKEVIEYARLRGIRVLAEFDTPGHTLSWGPGIPGLLTPCYSGSEPSGTFGPVNPSLNNTYEFMSTFFLEVSSVFPDFYLHLGGDEVDFTCWKSNPEIQDFMRKKGFGEDFKQLESFYIQTLLDIVSSYGKGYVVWQEVFDNKVKIQPDTIIQVWREDIPVNYMKELELVTKAGFRALLSAPWYLNRISYGPDWKDFYIVEPLAFEGTPEQKALVIGGEACMWGEYVDNTNLVPRLWPRAGAVAERLWSNKLTSDLTFAYERLSHFRCELLRRGVQAQPLNVGFCEQEFEQT |  |  |  |  | percentage of EdU-negative (MCF7; [2]): 25.5 ± 0.27%; percentage of EdU-negative (MCF7; [3]): 26.4 ± 5.3%; percentage of EdU-negative (hTERT-HMEC; [2]): 5.032 ± 0.0092%; percentage of EdU-negative (hTERT-HMEC; [3]): 20.1 ± 1.8%
3 | MKVTGIFLLSALALLSLSGNTGADSLGREAKCYNELNGCTKIYDPVCGTDGNTYPNECVLCFENRKRQTSILIQKSGPC | 24 ± 0.32 | 25.6 ± 0.77 | 5.21 ± 1.1 | 4.61 ± 0.16 | 
4 | MLLVLVVLIPVLVSSGGPEGHYEMLGTCRMVCDPYPARGPGAGARTDGGDALSEQSGAPPPSTLVQGPQGKPGRTGKPGPPGPPGDPGPPGPVGPPGEKGEPGKPGPPGLPGAGGSGAISTATYTTVPRVAFYAGLKNPHEGYEVLKFDDVVTNLGNNYDAASGKFTCNIPGTYFFTYHVLMRGGDGTSMWADLCKNGQVRASAIAQDADQNYDYASNSVILHLDAGDEVFIKLDGGKAHGGNSNKYSTFSGFIIYSD |  |  |  |  | percentage of EdU-negative (MCF7; [4]): 27 ± 0.61%; percentage of EdU-negative (MCF7; [5]): 28.3 ± 0.59%; percentage of EdU-negative (hTERT-HMEC; [4]): 4.78 ± 0.083%; percentage of EdU-negative (hTERT-HMEC; [5]): 8.79 ± 0.3%
5 | MEAVAVAAAVGVLLLAGAGGAAGDEAREAAAVRALVARLLGPGPAADFSVSVERALAAKPGLDTYSLGGGGAARVRVRGSTGVAAAAGLHRYLRDFCGCHVAWSGSQLRLPRPLPAVPGELTEATPNRYRYYQNVCTQSYSFVWWDWARWEREIDWMALNGINLALAWSGQEAIWQRVYLALGLTQAEINEFFTGPAFLAWGRMGNLHTWDGPLPPSWHIKQLYLQHRVLDQMRSFGMTPVLPAFAGHVPEAVTRVFPQVNVTKMGSWGHFNCSYSCSFLLAPEDPIFPIIGSLFLRELIKEFGTDHIYGADTFNEMQPPSSEPSYLAAATTAVYEAMTAVDTEAVWLLQGWLFQHQPQFWGPAQIRAVLGAVPRGRLLVLDLFAESQPVYTRTASFQGQPFIWCMLHNFGGNHGLFGALEAVNGGPEAARLFPNSTMVGTGMAPEGISQNEVVYSLMAELGWRKDPVPDLAAWVTSFAARRYGVSHPDAGAAWRLLLRSVYNCSGEACRGHNRSPLVRRPSLQMNTSIWYNRSDVFEAWRLLLTSAPSLATSPAFRYDLLDLTRQAVQELVSLYYEEARSAYLSKELASLLRAGGVLAYELLPALDEVLASDSRFLLGSWLEQARAAAVSEAEADFYEQNSRYQLTLWGPEGNILDYANKQLAGLVANYYTPRWRLFLEALVDSVAQGIPFQQHQFDKNVFQLEQAFVLSKQRYPSQPRGDTVDLAKKIFLKYYPRWVAGSW |  |  |  |  | percentage of EdU-negative (MCF7; [6]): 24.9 ± 1.1%; percentage of EdU-negative (MCF7; protein concentration 0.065 µM): 26 ± 2.8%; percentage of EdU-negative (hTERT-HMEC; [6]): 4.39 ± 0.1%; percentage of EdU-negative (hTERT-HMEC; protein concentration 0.065 µM): 5.55 ± 0.91%
6 | MLQLWKLVLLCGVLTGTSESLLDNLGNDLSNVVDKLEPVLHEGLETVDNTLKGILEKLKVDLGVLQKSSAWQLAKQKAQEAEKLLNNVISKLLPTNTDIFGLKISNSLILDVKAEPIDDGKGLNLSFPVTANVTVAGPIIGQIINLKASLDLLTAVTIETDPQTHQPVAVLGECASDPTSISLSLLDKHSQIINKFVNSVINTLKSTVSSLLQKEICPLIRIFIHSLDVNVIQQVVDNPQHKTQLQTLI [Q96DR5] | 27.4 ± 1.7 | 27.4 ± 1.2 | 4.84 ± 0.42 | 4.68 ± 0.1 | 
